“And” between values parts separate entries of the source, which are not always exact repeats. Equal values may be shown once.

Drawing on publication PMC8202325, this text covers stoichiometry N for one substance.

The experiment concerns the target His::PfPLSCR (recombinant full-length Plasmodium falciparum phospholipid scramblase with an N-terminal hexa-histidine affinity tag) (P. falciparum). In words: native gel or EMSA; blue native PAGE (NativePAGE Novex Bis-Tris, G250 additive) of eluted fractions of the main SEC peak; protein purified in 250 mM NaCl, 0.5 mM CaCl2, 1 mM TCEP, 0.1 % FC-12, 25 mM HEPES pH 7.5. Background: Mobility shift assays separate free from complexed probe on a gel.

Take “His::PfPLSCR (recombinant full-length Plasmodium falciparum phospholipid scramblase with an N-terminal hexa-histidine affinity tag) (natural protein)”: the stoichiometry N was 2 and 4.

One may read the stoichiometry N as a count of units in the complex or per binding partner.
